Values belong to the binder of their own block, whether it stands above or below them.
Assays:
可溶型GPC3コアタンパク質 [1] = molecular target: T1, 可溶型GPC3コアタンパク質 (human, UniProt P51654 25-563); assay: ELISA, purified antibody from 10 μg/mL in 3-fold steps on immobilised soluble GPC3 core protein
T1 construct: also called 可溶型GPC3コア蛋白質; soluble GPC3 core protein; not shown: C-terminal His tag

GC-3 = molecular target: T2, GC-3 (human, UniProt P51654 524-563); assay: Western blot of GST fusion proteins, reducing SDS-PAGE
T2 construct: also called GST融合タンパク質GC-3(Ala524からLys563); not shown: GST (glutathione S-transferase) of vector pGEX-4T-3 (Amersham), N-terminal to the GPC3 piece
T2 chain: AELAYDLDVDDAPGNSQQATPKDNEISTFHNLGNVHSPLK

GC-1 = molecular target: T3, GC-1 (human, UniProt P51654 495-563); assay: as above
T3 construct: Made in E. coli DH5α, purified on glutathione resin; also called GST融合タンパク質GC-1(Ser495からLys563); not shown: GST (glutathione S-transferase) of vector pGEX-4T-3 (Amersham), N-terminal to the GPC3 piece
T3 sequence: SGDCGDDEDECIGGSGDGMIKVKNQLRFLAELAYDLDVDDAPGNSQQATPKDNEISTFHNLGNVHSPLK

GC-2 = molecular target: T4, GC-2 (human, UniProt P51654 510-563); assay: as above
T4 construct: also called GST融合タンパク質GC-2(Gly510からLys563); not shown: GST (glutathione S-transferase) of vector pGEX-4T-3 (Amersham), N-terminal to the GPC3 piece
T4 sequence: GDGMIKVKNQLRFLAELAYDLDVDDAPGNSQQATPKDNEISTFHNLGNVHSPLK

可溶型GPC3コアタンパク質 [2] = molecular target: T1, 可溶型GPC3コアタンパク質; assay: ELISA on GPC3 (Fig. 15); reference antibody of the comparison
可溶型GPC3コアタンパク質 [3] = molecular target: T1, 可溶型GPC3コアタンパク質; assay: ELISA screening of hybridoma supernatant on immobilised soluble GPC3 core protein

- binding result (可溶型GPC3コアタンパク質 [1]): binds
- binding result (GC-3): binds
- binding result (GC-1): binds
- binding result (GC-2): binds
B1: M11F1 (antibody, V domains shown)
VH: QVTLKESGPGILQPSQTLSLTCSFSGFSLSIYGMGVGWIRQPSGKGLEWLANIWWNDDKYYNSALKSRLTISKDTSNNQVFLKISSVDTADTATYYCAQIGYFYFDYWGQGTTLTVSS
VL: DVVMTQTPLSLPVSLGDQASISCRSSQSLVHSNGNTYLHWYLQKPGQSPKLLIYKVSNRFSGVPDRFSGSGSGTDFTLKISRVEAEDLGVYFCSQSTHVPWTFGGGTKLEIK
notes: Mouse hybridoma antibody

- binding result (可溶型GPC3コアタンパク質 [2]): binds
B2: GC33マウス−ヒトキメラ抗体 (antibody, V domains shown)
VH: QVQLQQSGAELVRPGASVKLSCKASGYTFTDYEMHWVKQTPVHGLKWIGALDPKTGDTAYSQKFKGKATLTADKSSSTAYMELRSLTSEDSAVYYCTRFYSYTYWGQGTLVTVSA
VL: DVVMTQTPLSLPVSLGDQASISCRSSQSLVHSNGNTYLHWYLQKPGQSPKLLIYKVSNRFSGVPDRFSGSGSGTDFTLKISRVEAEDLGVYFCSQNTHVPPTFGSGTKLEIK
notes: Mouse GC33 variable regions on human IgG1 and human κ constant regions (vectors HEFgγ1, HEFgκ); also called キメラGC33抗体; マウスGC33可変領域の抗体(mouse / mouse)

- binding result (可溶型GPC3コアタンパク質 [3]): binds
B3: M10D2 (antibody, V domains shown)
VH: QVQLQQPGAELVKPGASVKLSCKASGYTFTSYWMHWVKQRPGQGLEWIGEIDPSDSYTYYNQKFRGKATLTVDKSSNTAYMQLSSLTSEDSAVYYCSRSNLGDGHYRFPAFPYWGQGTLVTVSA
VL: DIVLTQSPATLSVTPGDRVSLSCRASHSISNFLHWYPQKSHESPRLLIKYASQSISGIPSRFSGNGSGTDFTLSINSVETEDFGMYFCQQSNIWSLTFGAGTKLELK
notes: Mouse hybridoma antibody

— JP2007300927A (dated 2007)
